Assay results reported in US20160250307A1.

Tests used:
HLA-A*02 (human) = assay: UV-ligand exchange, anti-b2m ELISA; grade: exchange yield >=50%
HLA-A*24 (human) [1] = assay: UV-ligand exchange, anti-b2m ELISA; grade: exchange yield >=75%
HLA-A*24 (human) [2] = assay: UV-ligand exchange, anti-b2m ELISA; grade: exchange yield >=50%

Binder	peptide exchange yield (HLA-A*24 (human) [1])	also measured
ALDSGAFQSV (modifications not checked)	–	peptide exchange yield (HLA-A*02 (human)): 50 to 75%
SYPTFFPRF	> 75%	–
RYSAGWDAKF	> 75%	–
AFSPDSHYLLF	–	peptide exchange yield (HLA-A*24 (human) [2]): 50 to 75%
RYNEKCFKL	> 75%	–
KYPDIISRI	> 75%	–
SYITKPEKW	> 75%	–
IYPGAFVDL	> 75%	–
RYAPPPSFSEF	> 75%	–
AYLKWISQI	> 75%	–
RWPKKSAEF	> 75%	–
LYWSHPRKF	> 75%	–
KFVTVQATF	> 75%	–
AYLLQPSQF	> 75%	–
AYVNTFHNI	> 75%	–
AYGTYRSNF	> 75%	–

Binder	peptide exchange yield (HLA-A*24 (human) [1])	also measured
YYGILQEKI	> 75%	–
VYGLQRNLL	> 75%	–
KWPETPLLL	> 75%	–
IYLERFPIF	> 75%	–
SYNPAENAVLL	> 75%	–
VFHPRQELI	–	peptide exchange yield (HLA-A*24 (human) [2]): 50 to 75%
AYPAIRYLL	> 75%	–
IYIPSYFDF	> 75%	–
VYGDVISNI	> 75%	–
YYNKVSTVF	> 75%	–
IYVTSIEQI	> 75%	–
IYTGNISSF	> 75%	–
IYADVGEEF	> 75%	–
DYIPYVFKL	> 75%	–
VYQGAIRQI	> 75%	–
